Key:
[1] = target: FcεRI-bound human IgE (IgE loaded on CHO 3D10 cells expressing the FcεRI alpha chain) (human) (UniProt P01854); assay: FACS on IgE-loaded CHO 3D10 cells (FIG. 4), arithmetic/linear scale
[2] = target: FcεRI-bound human IgE (IgE loaded on CHO 3D10 cells expressing the FcεRI alpha chain) (human) (UniProt P01854); assay: FACS on IgE-loaded CHO 3D10 cells (FIG. 4); called nonspecific by the filing

Sequence of FcεRI-bound human IgE (IgE loaded on CHO 3D10 cells expressing the FcεRI alpha chain) (human) (P01854 whole entry, chain 1 of 2): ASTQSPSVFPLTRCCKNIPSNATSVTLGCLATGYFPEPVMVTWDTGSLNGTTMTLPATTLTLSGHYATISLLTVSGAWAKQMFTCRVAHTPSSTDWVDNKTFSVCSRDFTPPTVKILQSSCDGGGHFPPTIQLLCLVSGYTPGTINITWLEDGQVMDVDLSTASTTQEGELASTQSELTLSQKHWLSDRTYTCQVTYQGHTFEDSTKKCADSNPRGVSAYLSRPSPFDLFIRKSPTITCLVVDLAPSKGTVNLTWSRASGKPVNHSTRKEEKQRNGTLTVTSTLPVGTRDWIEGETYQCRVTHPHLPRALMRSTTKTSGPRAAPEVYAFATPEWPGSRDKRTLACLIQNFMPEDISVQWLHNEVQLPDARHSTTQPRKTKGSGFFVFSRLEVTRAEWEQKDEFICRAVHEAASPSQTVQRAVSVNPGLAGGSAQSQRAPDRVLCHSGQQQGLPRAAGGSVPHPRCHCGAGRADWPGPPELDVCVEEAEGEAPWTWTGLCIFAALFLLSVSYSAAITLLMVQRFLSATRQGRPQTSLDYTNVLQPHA
Sequence of FcεRI-bound human IgE (IgE loaded on CHO 3D10 cells expressing the FcεRI alpha chain) (human) (P12319 26-257, chain 2 of 2, further chain): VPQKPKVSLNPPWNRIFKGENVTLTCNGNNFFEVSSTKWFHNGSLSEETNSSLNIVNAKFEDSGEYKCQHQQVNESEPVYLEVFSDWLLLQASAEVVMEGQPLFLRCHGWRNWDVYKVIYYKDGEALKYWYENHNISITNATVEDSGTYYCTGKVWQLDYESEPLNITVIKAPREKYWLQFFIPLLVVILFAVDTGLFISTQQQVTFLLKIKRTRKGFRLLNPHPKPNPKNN

mean channel fluorescence at 0.1 µg/ml [1]: 7.3 | nonspecific background binding (percent) [2]: 10%
Substance: MOPC21 (antibody)
